Test results taken from the supplement of paper PMC10567573.

B1: LOXL2 (parent)
chain: FSPDGPSRFRKAYKPEQPLVRLRG

Variants of: B1
Test: protein stability index of a GFP-peptide fusion (GPS, HEK-293T) (PSI 1-6); higher = more stable
Conditions: c terminus: a fixed tail appended
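Note: lentivirally expressed fusions sorted by FACS into six bins by GFP to DsRed ratio, PSI derived from sequencing read proportions per bin multiplied by bin number.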

Row | Variant | protein stability index
1 | FSPDGPSRFSKAYKPEQPLVRLRG | 3.35
2 | FSPDGPSRFDKAYKPEQPLVRLRG | 2.2
3 | FSPDGPSRFYKAYKPEQPLVRLRG | 1.98
4 | FSPDGPSRFHKAYKPEQPLVRLRG | 1.02
5 | FSPDGPSRFLKAYKPEQPLVRLRG | 1.97
6 | FSPDGPSRFVKAYKPEQPLVRLRG | 2.46
7 | FSPDGPSRFMKAYKPEQPLVRLRG | 2.1
8 | FSPDGPSRFQKAYKPEQPLVRLRG | 1.99
9 | FSPDGPSRFIKAYKPEQPLVRLRG | 2.8
10 | FSPDGPSRFPKAYKPEQPLVRLRG | 2.14
11 | FSPDGPSRFCKAYKPEQPLVRLRG | 3.46
12 | FSPDGPSRFKKAYKPEQPLVRLRG | 1.75
13 | FSPDGPSRFGKAYKPEQPLVRLRG | 1.78
14 | FSPDGPSRFEKAYKPEQPLVRLRG | 2.5
15 | FSPDGPSRFNKAYKPEQPLVRLRG | 1.94
16 | FSPDGPSRFFKAYKPEQPLVRLRG | 4
17 | FSPDGPSRFRKYYKPEQPLVRLRG | 1.91
18 | FSPDGPSRFRKKYKPEQPLVRLRG | 2
19 | FSPDGPSRFRKWYKPEQPLVRLRG | 4.25
20 | FSPDGPSRFRKDYKPEQPLVRLRG | 2.03
21 | FSPDGPSRFRKRYKPEQPLVRLRG | 1.42
22 | FSPDGPSRFRKPYKPEQPLVRLRG | 2.13
23 | FSPDGPSRFRKCYKPEQPLVRLRG | 1.88
24 | FSPDGPSRFRKEYKPEQPLVRLRG | 2.15

Row | Variant | protein stability index
25 | FSPDGPSRFRKLYKPEQPLVRLRG | 2.35
26 | FSPDGPSRFRKIYKPEQPLVRLRG | 3.12
27 | FSPDGPSRFRKGYKPEQPLVRLRG | 2.44
28 | FSPDGPSRFRKVYKPEQPLVRLRG | 2.3
29 | FSPDGPSRFRKTYKPEQPLVRLRG | 2.59
30 | FSPDGPSRFRKNYKPEQPLVRLRG | 2.11
31 | FSPDGPSRFRKFYKPEQPLVRLRG | 1.57
32 | FSPDGPSRFRKHYKPEQPLVRLRG | 1.8
33 | FSPDGPSRFRKSYKPEQPLVRLRG | 1.9
34 | FSPDGPSRFRKQYKPEQPLVRLRG | 1.96
35 | FSPDGPSRFRKAYKTEQPLVRLRG | 1.41
36 | FSPDGPSRFRKAYKGEQPLVRLRG | 2.48
37 | FSPDGPSRFRKAYKVEQPLVRLRG | 2.28
38 | FSPDGPSRFRKAYKKEQPLVRLRG | 1.66
39 | FSPDGPSRFRKAYKWEQPLVRLRG | 1.5
40 | FSPDGPSRFRKAYKLEQPLVRLRG | 3.53
41 | FSPDGPSRFRKAYKDEQPLVRLRG | 1.68
42 | FSPDGPSRFRKAYKMEQPLVRLRG | 2.79
43 | FSPDGPSRFRKAYKAEQPLVRLRG | 1.85
44 | FSPDGPSRFRKAYKYEQPLVRLRG | 1.6
45 | FSPDGPSRFRKAYKREQPLVRLRG | 2.88
46 | FSPDGPSRFRKAYKIEQPLVRLRG | 2.07
47 | FSPDGPSRFRKAYKEEQPLVRLRG | 1.43
48 | FSPDGPSRFRKAYKHEQPLVRLRG | 1.7

Row | Variant | protein stability index
49 | FSPDGPSRFRKAYKQEQPLVRLRG | 1.7
50 | FSPDGPSRFRKAYKSEQPLVRLRG | 3.74
51 | FSPDGPSRFRKAYKNEQPLVRLRG | 2.52
52 | FSPDGPSRFRKAYKFEQPLVRLRG | 1.83
53 | FSPDGPSRFRKAYKCEQPLVRLRG | 3.13
54 | FSPDGPSRFRKAYKPLQPLVRLRG | 2.74
55 | FSPDGPSRFRKAYKPVQPLVRLRG | 1.85
56 | FSPDGPSRFRKAYKPHQPLVRLRG | 1.63
57 | FSPDGPSRFRKAYKPFQPLVRLRG | 1.39
58 | FSPDGPSRFRKAYKPDQPLVRLRG | 2.65
59 | FSPDGPSRFRKAYKPKQPLVRLRG | 2.67
60 | FSPDGPSRFRKAYKPQQPLVRLRG | 2.92
61 | FSPDGPSRFRKAYKPYQPLVRLRG | 2.75
62 | FSPDGPSRFRKAYKPCQPLVRLRG | 2.49
63 | FSPDGPSRFRKAYKPNQPLVRLRG | 1.64
64 | FSPDGPSRFRKAYKPPQPLVRLRG | 1.72
65 | FSPDGPSRFRKAYKPSQPLVRLRG | 2.72
66 | FSPDGPSRFRKAYKPAQPLVRLRG | 1.96
67 | FSPDGPSRFRKAYKPTQPLVRLRG | 2.09
68 | FSPDGPSRFRKAYKPIQPLVRLRG | 3.39
69 | FSPDGPSRFRKAYKPGQPLVRLRG | 1.54
70 | FSPDGPSRFRMAYKPEQPLVRLRG | 2.98
71 | FSPDGPSRFRGAYKPEQPLVRLRG | 2.27
72 | FSPDGPSRFRFAYKPEQPLVRLRG | 2.21

Row | Variant | protein stability index
73 | FSPDGPSRFRIAYKPEQPLVRLRG | 1.76
74 | FSPDGPSRFREAYKPEQPLVRLRG | 3.54
75 | FSPDGPSRFRYAYKPEQPLVRLRG | 2.6
76 | FSPDGPSRFRRAYKPEQPLVRLRG | 2.72
77 | FSPDGPSRFRSAYKPEQPLVRLRG | 1.62
78 | FSPDGPSRFRDAYKPEQPLVRLRG | 1.28
79 | FSPDGPSRFRHAYKPEQPLVRLRG | 1.64
80 | FSPDGPSRFRVAYKPEQPLVRLRG | 2.66
81 | FSPDGPSRFRPAYKPEQPLVRLRG | 2.41
82 | FSPDGPSRFRTAYKPEQPLVRLRG | 3.77
83 | FSPDGPSRFRNAYKPEQPLVRLRG | 2.7
84 | FSPDGPSRFRLAYKPEQPLVRLRG | 2.31
85 | FSPDGPSRFRQAYKPEQPLVRLRG | 3.17
86 | FSPDGPMRFRKAYKPEQPLVRLRG | 1.96
87 | FSPDGPVRFRKAYKPEQPLVRLRG | 1.64
88 | FSPDGPQRFRKAYKPEQPLVRLRG | 2.32
89 | FSPDGPTRFRKAYKPEQPLVRLRG | 1.49
90 | FSPDGPPRFRKAYKPEQPLVRLRG | 2.18
91 | FSPDGPNRFRKAYKPEQPLVRLRG | 2.89
92 | FSPDGPYRFRKAYKPEQPLVRLRG | 2.62
93 | FSPDGPRRFRKAYKPEQPLVRLRG | 2.05
94 | FSPDGPLRFRKAYKPEQPLVRLRG | 4
95 | FSPDGPSLFRKAYKPEQPLVRLRG | 1.5
96 | FSPDGPSTFRKAYKPEQPLVRLRG | 2.1

Row | Variant | protein stability index
97 | FSPDGPSWFRKAYKPEQPLVRLRG | 3.95
98 | FSPDGPSSFRKAYKPEQPLVRLRG | 2.66
99 | FSPDGPSPFRKAYKPEQPLVRLRG | 2.76
100 | FSPDGPSQFRKAYKPEQPLVRLRG | 2.42
101 | FSPDGPSGFRKAYKPEQPLVRLRG | 2.02
102 | FSPDGPSFFRKAYKPEQPLVRLRG | 2.75
103 | FSPDGPSNFRKAYKPEQPLVRLRG | 1.71
104 | FSPDGPSKFRKAYKPEQPLVRLRG | 1.27
105 | FSPDGPSHFRKAYKPEQPLVRLRG | 2.23
106 | FSPDGPSDFRKAYKPEQPLVRLRG | 2.31
107 | FSPDGPSYFRKAYKPEQPLVRLRG | 2.66
108 | FSPDGPSVFRKAYKPEQPLVRLRG | 2.88
109 | FSPDGPSAFRKAYKPEQPLVRLRG | 2.89
110 | FSPDGPSEFRKAYKPEQPLVRLRG | 1.81
111 | FSPDGPSIFRKAYKPEQPLVRLRG | 4.19
112 | FSPDGPSRQRKAYKPEQPLVRLRG | 3.94
113 | FSPDGPSRCRKAYKPEQPLVRLRG | 2.78
114 | FSPDGPSRPRKAYKPEQPLVRLRG | 3.29
115 | FSPDGPSRIRKAYKPEQPLVRLRG | 2.23
116 | FSPDGPSRDRKAYKPEQPLVRLRG | 3.29
117 | FSPDGPSRNRKAYKPEQPLVRLRG | 2.85
118 | FSPDGPSRLRKAYKPEQPLVRLRG | 2.01
119 | FSPDGPSRKRKAYKPEQPLVRLRG | 2.58
120 | FSPDGPSRHRKAYKPEQPLVRLRG | 2.81

Row | Variant | protein stability index
121 | FSPDGPSRARKAYKPEQPLVRLRG | 2.52
122 | FSPDGPSRYRKAYKPEQPLVRLRG | 3.04
123 | FSPDGPSRTRKAYKPEQPLVRLRG | 2.27
124 | FSPDGPSRSRKAYKPEQPLVRLRG | 2.56
125 | FSPDGPSRGRKAYKPEQPLVRLRG | 3.03
126 | FSPDGPSRVRKAYKPEQPLVRLRG | 2.05
127 | FSPDGPSRMRKAYKPEQPLVRLRG | 2.56
128 | FSPDGPSRERKAYKPEQPLVRLRG | 3.71
129 | FSPDGPSRWRKAYKPEQPLVRLRG | 2.45
130 | FSPDGPSRRRKAYKPEQPLVRLRG | 2.58
131 | FSPDGPSRFRKAYPPEQPLVRLRG | 1.95
132 | FSPDGPSRFRKAYQPEQPLVRLRG | 1.76
133 | FSPDGPSRFRKAYHPEQPLVRLRG | 2.06
134 | FSPDGPSRFRKAYDPEQPLVRLRG | 1.86
135 | FSPDGPSRFRKAYTPEQPLVRLRG | 3.59
136 | FSPDGPSRFRKAYIPEQPLVRLRG | 2.86
137 | FSPDGPSRFRKAYNPEQPLVRLRG | 2.35
138 | FSPDGPSRFRKAYGPEQPLVRLRG | 2.32
139 | FSPDGPSRFRKAYCPEQPLVRLRG | 3.06
140 | FSPDGPSRFRKAYVPEQPLVRLRG | 2.71
141 | FSPDGPSRFRKAYSPEQPLVRLRG | 1.48
142 | FSPDGPSRFRKAYAPEQPLVRLRG | 2.1
143 | FSPDGPSRFRKAYYPEQPLVRLRG | 2.61
144 | FSPDGPSRFRKAYEPEQPLVRLRG | 1.83

Row | Variant | protein stability index
145 | FSPDGPSRFRKAYWPEQPLVRLRG | 1.99
146 | FSPDGPSRFRKAYRPEQPLVRLRG | 1.54
147 | FSPDGPSRFRKAYLPEQPLVRLRG | 2.46
148 | FSPDGPSRFRKAYFPEQPLVRLRG | 1.72
149 | FSPDGPSRFRKAYMPEQPLVRLRG | 2.19
150 | FSPDGPSRFRKAYKPEKPLVRLRG | 1.54
151 | FSPDGPSRFRKAYKPENPLVRLRG | 1.4
152 | FSPDGPSRFRKAYKPEDPLVRLRG | 2.08
153 | FSPDGPSRFRKAYKPESPLVRLRG | 2.25
154 | FSPDGPSRFRKAYKPEMPLVRLRG | 2.48
155 | FSPDGPSRFRKAYKPEIPLVRLRG | 2.18
156 | FSPDGPSRFRKAYKPEWPLVRLRG | 1.28
157 | FSPDGPSRFRKAYKPEFPLVRLRG | 2.74
158 | FSPDGPSRFRKAYKPERPLVRLRG | 1.57
159 | FSPDGPSRFRKAYKPEVPLVRLRG | 2.21
160 | FSPDGPSRFRKAYKPEPPLVRLRG | 2.81
161 | FSPDGPSRFRKAYKPEGPLVRLRG | 2.53
162 | FSPDGPSRFRKAYKPELPLVRLRG | 2.03
163 | FSPDGPSRFRKAYKPEHPLVRLRG | 1.46
164 | FSPDGPSRFRKAYKPECPLVRLRG | 2.65
165 | FSPDGPSRFRKAYKPEAPLVRLRG | 2.07
166 | FSPDGPSRFRKAYKPEEPLVRLRG | 4.03
167 | FSPDGPSRFRKAYKPETPLVRLRG | 1.5
168 | FSPDGPSRFRKACKPEQPLVRLRG | 3.06

Row | Variant | protein stability index
169 | FSPDGPSRFRKATKPEQPLVRLRG | 1.69
170 | FSPDGPSRFRKAHKPEQPLVRLRG | 1.81
171 | FSPDGPSRFRKANKPEQPLVRLRG | 2.15
172 | FSPDGPSRFRKAAKPEQPLVRLRG | 2.05
173 | FSPDGPSRFRKAKKPEQPLVRLRG | 2.77
174 | FSPDGPSRFRKALKPEQPLVRLRG | 1.97
175 | FSPDGPSRFRKAWKPEQPLVRLRG | 3.28
176 | FSPDGPSRFRKASKPEQPLVRLRG | 2.44
177 | FSPDGPSRFRKAIKPEQPLVRLRG | 1.54
178 | FSPDGPSRFRKAFKPEQPLVRLRG | 1.91
179 | FSPDGPSRFRKAQKPEQPLVRLRG | 2.38
180 | FSPDGPSRFRKADKPEQPLVRLRG | 3.33
181 | FSPDGPSRFRKARKPEQPLVRLRG | 2.27
182 | FSPDGPSRFRKAVKPEQPLVRLRG | 3.86
183 | FSPDGPSRFRKAMKPEQPLVRLRG | 1.54
184 | FSPDGPSRFRKAGKPEQPLVRLRG | 2.06
185 | FSPDGPSRFRKAEKPEQPLVRLRG | 2.15
186 | FSPDGPSRFRKAPKPEQPLVRLRG | 2.55
187 | FSPDGPSRFRKAYKPEQALVRLRG | 2.07
188 | FSPDGPSRFRKAYKPEQCLVRLRG | 1.52
